Data from US20250043302A1, “MUTATED HYDROXYPHENYLPYRUVATE DIOXYGENASE POLYPEPTIDE, AND CODING GENE AND USE THEREOF” (BEIJING DABEINONG BIOTECHNOLOGY CO., LTD., priority 2021, published 2025).

Tests used:
Type in all cases: in vivo
soybean T1 plants [1] = experiment: Mesotrione tolerance of transgenic soybean T1 plants; settings: different concentrations
soybean T1 plants [2] = experiment: Topramezone tolerance of transgenic soybean T1 plants; settings: different concentrations
Method: T1 transformants were initially selected from the untransformed seeds using a glufosinate selection scheme. […] The degree of damage caused by the herbicide was measured for each plant according to the proportion of bleached leaf area (the proportion of bleached leaf area=bleached leaf area/total leaf area×100%) 7 days after spraying (7 DAT): the case where there is basically no bleached phenotype is defined as grade 0, the case where the proportion of bleached leaf area is less than 50% is defined as grade 1, the case where the proportion of bleached leaf area is more than 50% is defined as grade 2, and the case where the proportion of bleached leaf area is 100% grade is defined as grade 3.
The soybean T1 plants into which the SbHPPD-02 nucleotide sequence was introduced, soybean T1 plants into which the SbHPPDm-F372A-02 nucleotide sequence was introduced, soybean T1 plants into which the SbHPPDm-F383W-02 nucleotide sequence was introduced, soybean T1 plants into which the SbHPPDm-F372A-F383W-02 nucleotide sequence was introduced, soybean T1 plants into which the control vector DBN11726N nucleotide sequence was introduced, and wild-type soybean plants (V3-V4 at seedling stage) were sprayed with topramezone at three different concentrations (i.e., 25 g ai/ha (one-fold field concentration, 1×). […] According to the method in point 6 of Example 1, after 7 days of spraying (7 DAT), the damage degree of each plant by the herbicide was statistically analyzed, and the scoring and resistance evaluation were carried out accordingly. […]

[3] = tested on: Arabidopsis thaliana T1 plants; experiment: Isoxaflutole tolerance of transgenic Arabidopsis thaliana T1 plants (spray, bleached leaf area grade, damage score); parameters: Scores (pesticide damage): scale not given here; settings: spray, Arabidopsis thaliana T1 plants; for Classification and statistics of the grade of pesticide damage: Grade 0 (number of plants) / Classification and statistics of the grade of pesticide damage: Grade 1 (number of plants) / Classification and statistics of the grade of pesticide damage: Grade 2 (number of plants) / Classification and statistics of the grade of pesticide damage: Grade 3 (number of plants): 16 plants
Procedure, shortened: (§1)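 Damage was assessed by bleaching grade (0 none; 1 <50%; 2 >50%; 3 100% of leaf area) one week after spraying. Sprays on 18-day-old T1 and wild-type plants used field-rate multiples: topramezone 25–200, isoxaflutole 35–280, mesotrione 52.5–420 g ai/ha.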

[4] = tested on: Arabidopsis thaliana T1 plants; experiment: Mesotrione tolerance of transgenic Arabidopsis thaliana T1 plants (spray, bleached leaf area grade, damage score); parameters: Scores: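 damage score 0-100 computed as Σ(N×S)/(T×M)×100 over grades 0-3 with higher meaning more damage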; settings: Arabidopsis thaliana T1 plants; for Grade 0 (classification and statistics of the grade of pesticide damage; number of plants) / Grade 1 (classification and statistics of the grade of pesticide damage; number of plants) / Grade 2 (classification and statistics of the grade of pesticide damage; number of plants) / Grade 3 (classification and statistics of the grade of pesticide damage; number of plants): 16 plants
Procedure, shortened: as §1

[5] = tested on: Arabidopsis thaliana T1 plants; experiment: Topramezone tolerance of transgenic Arabidopsis thaliana T1 plants (spray, bleached leaf area grade, damage score); settings: 7 DAT, Table 4; for Classification and statistics of the grade of pesticide damage: Grade 0 / Classification and statistics of the grade of pesticide damage: Grade 1 / Classification and statistics of the grade of pesticide damage: Grade 2 / Classification and statistics of the grade of pesticide damage: Grade 3: number of plants; for Scores: pesticide damage score 0-100
Procedure, shortened: as §1

soybean T1 plants [6] = experiment: Isoxaflutole tolerance of transgenic soybean T1 plants; settings: different concentrations
[7] = isoxaflutole 35 g ai/ha (0.5x field concentration)
[8] = isoxaflutole 70 g ai/ha (1x field concentration)

B1: SbHPPDm-F372A-02: nucleotide sequence encoding Sorghum bicolor HPPD with F372A; vector DBN11759 (nucleic acid)
DNA: ATGCCGCCCACTCCAACAACTGCTGCTGCGACGGGAGCAGCTGTCGCCGCTGCTTCTGCTGAGCAGGCTGCCTTCAGGCTCGTCGGGCACAGAAATTTTGTTCGTGTAAATCCAAGGAGTGATAGGTTCCACACCTTGGCTTTTCACCACGTGGAGTTGTGGTGTGCTGATGCAGCCTCGGCAGCGGGGCGCTTCTCGTTTGGTCTCGGTGCTCCGCTCGCCGCAAGATCTGATCTTAGCACTGGAAACACAGCGCATGCCTCCCTGCTCCTGCGCTCTGGCGCGCTGGCGTTCCTCTTCACGGCGCCATATGCTCACGGCGCCGACGCCGCCACCGCGTCATTGCCGTCTTTTAGTGCAGCCGAAGCAAGAAGATTTGCAGCAGACCACGGCCTCGCCGTAAGGGCCGTGGCCTTACGTGTCGCCGATGCCGAAGATGCTTTCCGCGCCTCTGTAGCAGCTGGAGCAAGGCCAGCATTTGAACCTGTTGAATTGGGGTTAGGATTCCGTCTTGCAGAAGTTGAGCTTTATGGCGACGTTGTTTTGAGATACGTTTCATATCCTGATGACGCTGACGCTAGCTTCTTGCCTGGTTTTGTGGGGGTGACATCACCTGGGGCAGCAGATTATGGTCTCAGGCGGTTTGATCATATTGTTGGAAACGTTCCTGAACTCGCGCCGGCGGCAGCCTACTTCGCCGGTTTCACTGGGTTTCATGAATTTGCTGAATTCACAGCCGAGGATGTCGGCACCACCGAGAGTGGACTGAACTCCATGGTGCTGGCCAACAATGCAGAGAATGTCCTTCTTCCCTTGAATGAACCAGTTCATGGAACAAAAAGGCGTTCCCAAATACAAACATACCTCGACCATCATGGTGGACCAGGCGTTCAGCATATGGCTCTCGCTAGTGACGATGTTCTACGAACCCTGCGAGAGATGCAGGCGCGGTCTGCAATGGGAGGATTTGAGTTCATGGCACCTCCTGCCCCTGAATATTATGATGGTGTTCGGAGAAGGGCAGGTGATGTGCTAACTGAAGCTCAAATCAAGGAGTGCCAGGAGCTTGGCGTGCTGGTCGATCGGGATGATCAAGGTGTGCTTCTGCAGATTGCCACTAAACCAGTGGGTGACCGCCCCACGCTGTTCCTAGAGATCATCCAGAGAATAGGGTGCATGGAGAAGGACGAAAAAGGACAAGAGTACCAGAAGGGAGGTTGTGGCGGCTTTGGAAAAGGGAACTTCTCCCAATTATTCAAGTCAATTGAAGACTATGAAAAGAGTTTGGAGGCTAAGCAAGCTGCAGCCGCCCAGGGCAGCTGA
modifications: SbHPPDm-F372A-02 Nucleotide Sequence
notes: vector DBN11759
Which “tolerance to HPPD-inhibitor herbicides (in words): mesotrione” value (soybean T1 plants [1]) does the source give for B1 here?
The value was “different degrees of tolerance”.

What about the “tolerance to HPPD-inhibitor herbicides (in words): topramezone” value (soybean T1 plants [2]) of the same molecule?
The value was “different degrees of tolerance”.

And the Resistance evaluation [3, 7]?
Its Resistance evaluation is “Poorly”.

And the “Scores (pesticide damage)” value [3, 7]?
The value was 67.

And the “Classification and statistics of the grade of pesticide damage: Grade 0 (number of plants)” value [3, 7]?
Its value is 0.

And the “Classification and statistics of the grade of pesticide damage: Grade 1 (number of plants)” value [3, 7]?
Its value is 2.

And the “Classification and statistics of the grade of pesticide damage: Grade 2 (number of plants)” value [3, 7]?
The value was 12.

What about the “Classification and statistics of the grade of pesticide damage: Grade 3 (number of plants)” value [3, 7] of the same molecule?
Its value is 2.

What about the Resistance evaluation [3, 8] of the same molecule?
Its Resistance evaluation is “Non-resistant”.

What about the “Scores (pesticide damage)” value [3, 8] of the same molecule?
The value was 100.

What about the “Classification and statistics of the grade of pesticide damage: Grade 0 (number of plants)” value [3, 8] of the same molecule?
The value was 0.

What about the “Classification and statistics of the grade of pesticide damage: Grade 1 (number of plants)” value [3, 8] of the same molecule?
The value was 0.

And the “Classification and statistics of the grade of pesticide damage: Grade 2 (number of plants)” value [3, 8]?
Its value is 0.

What about the “Classification and statistics of the grade of pesticide damage: Grade 3 (number of plants)” value [3, 8] of the same molecule?
The value was 16.

What about the Resistance evaluation ([4]; mesotrione 52.5 g ai/ha) of the same molecule?
The Resistance evaluation was “Poorly resistant”.

What about the Scores ([4]; mesotrione 52.5 g ai/ha) of the same molecule?
The Scores was 60.

What about the “Grade 0 (classification and statistics of the grade of pesticide damage; number of plants)” value ([4]; mesotrione 52.5 g ai/ha) of the same molecule?
Its value is 0.

And the “Grade 1 (classification and statistics of the grade of pesticide damage; number of plants)” value ([4]; mesotrione 52.5 g ai/ha)?
Its value is 6.

And the “Grade 2 (classification and statistics of the grade of pesticide damage; number of plants)” value ([4]; mesotrione 52.5 g ai/ha)?
The value was 7.

What about the “Grade 3 (classification and statistics of the grade of pesticide damage; number of plants)” value ([4]; mesotrione 52.5 g ai/ha) of the same molecule?
The value was 3.

And the Resistance evaluation ([4]; mesotrione 105 g ai/ha)?
Its Resistance evaluation is “Non-resistant”.

And the Scores ([4]; mesotrione 105 g ai/ha)?
Its Scores is 100.

And the “Grade 0 (classification and statistics of the grade of pesticide damage; number of plants)” value ([4]; mesotrione 105 g ai/ha)?
The value was 0.

And the “Grade 1 (classification and statistics of the grade of pesticide damage; number of plants)” value ([4]; mesotrione 105 g ai/ha)?
Its value is 0.

What about the “Grade 2 (classification and statistics of the grade of pesticide damage; number of plants)” value ([4]; mesotrione 105 g ai/ha) of the same molecule?
Its value is 0.

And the “Grade 3 (classification and statistics of the grade of pesticide damage; number of plants)” value ([4]; mesotrione 105 g ai/ha)?
Its value is 16.

What about the “Classification and statistics of the grade of pesticide damage: Grade 0” value ([5]; topramezone 25 g ai/ha (1×)) of the same molecule?
The value was 16.

What about the “Classification and statistics of the grade of pesticide damage: Grade 1” value ([5]; topramezone 25 g ai/ha (1×)) of the same molecule?
Its value is 0.

What about the “Classification and statistics of the grade of pesticide damage: Grade 2” value ([5]; topramezone 25 g ai/ha (1×)) of the same molecule?
The value was 0.

And the “Classification and statistics of the grade of pesticide damage: Grade 3” value ([5]; topramezone 25 g ai/ha (1×))?
The value was 0.

What about the “Classification and statistics of the grade of pesticide damage: Grade 0” value ([5]; topramezone 100 g ai/ha (4×)) of the same molecule?
The value was 4.

And the “Classification and statistics of the grade of pesticide damage: Grade 1” value ([5]; topramezone 100 g ai/ha (4×))?
The value was 4.

And the “Classification and statistics of the grade of pesticide damage: Grade 2” value ([5]; topramezone 100 g ai/ha (4×))?
Its value is 8.

What about the “Classification and statistics of the grade of pesticide damage: Grade 3” value ([5]; topramezone 100 g ai/ha (4×)) of the same molecule?
Its value is 0.

And the Scores ([5]; topramezone 25 g ai/ha (1×))?
The Scores was 0.

What about the Scores ([5]; topramezone 100 g ai/ha (4×)) of the same molecule?
Its Scores is 42.

And the Resistance evaluation ([5]; topramezone 25 g ai/ha (1×))?
Its Resistance evaluation is “highly”.

What about the Resistance evaluation ([5]; topramezone 100 g ai/ha (4×)) of the same molecule?
Its Resistance evaluation is “poorly”.

And the “tolerance to HPPD-inhibitor herbicides (in words): isoxaflutole” value (soybean T1 plants [6])?
The value was “different degrees of tolerance”.
